In patent US20060160146:

What was measured:
[1] = test system: SEAP-APPsw fusion protein (secretory alkaline phosphatase fused to APP 581-695 with glutamic acid at position 17 of β-amyloid and Swedish mutations)
[2] = test system: SEAP-APPwt fusion protein (secretory alkaline phosphatase fused to APP 581-695, no Swedish mutations)
[3] = test system: BE11-hAPP695 with alanine at position 17 of β-amyloid
[4] = test system: BE11-hAPP695 with glutamic acid at position 17 of β-amyloid
[5] = test system: BE11-hAPP695 with lysine at position 17 of β-amyloid
[6] = test system: BE11-hAPP695 with proline at position 17 of β-amyloid
[7] = test system: BE11-hAPP695 with tryptophan at position 16 of β-amyloid
BE11-hAPP695 with tryptophan at position 16 of β-amyloid, sequence (chain, as listed by the source): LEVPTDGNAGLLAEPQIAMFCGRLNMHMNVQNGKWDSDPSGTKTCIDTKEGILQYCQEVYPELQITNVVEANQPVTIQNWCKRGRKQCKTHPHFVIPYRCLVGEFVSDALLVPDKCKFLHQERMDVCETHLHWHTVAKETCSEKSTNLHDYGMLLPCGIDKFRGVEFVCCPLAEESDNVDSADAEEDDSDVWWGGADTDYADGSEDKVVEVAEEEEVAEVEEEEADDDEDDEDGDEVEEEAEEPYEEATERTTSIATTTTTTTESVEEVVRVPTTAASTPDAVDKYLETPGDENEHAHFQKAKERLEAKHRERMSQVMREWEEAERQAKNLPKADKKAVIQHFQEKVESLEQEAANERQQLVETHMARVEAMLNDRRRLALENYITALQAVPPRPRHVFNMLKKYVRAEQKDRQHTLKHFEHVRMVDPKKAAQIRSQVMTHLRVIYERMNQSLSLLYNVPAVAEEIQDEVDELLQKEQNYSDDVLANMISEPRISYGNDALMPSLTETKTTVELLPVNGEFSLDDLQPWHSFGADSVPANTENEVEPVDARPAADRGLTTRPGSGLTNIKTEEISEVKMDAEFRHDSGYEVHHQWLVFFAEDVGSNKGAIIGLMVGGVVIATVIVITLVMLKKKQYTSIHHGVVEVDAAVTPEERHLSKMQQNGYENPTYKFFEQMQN

BE11-hAPP695 with glutamic acid at position 17 of β-amyloid, sequence (chain, as listed by the source): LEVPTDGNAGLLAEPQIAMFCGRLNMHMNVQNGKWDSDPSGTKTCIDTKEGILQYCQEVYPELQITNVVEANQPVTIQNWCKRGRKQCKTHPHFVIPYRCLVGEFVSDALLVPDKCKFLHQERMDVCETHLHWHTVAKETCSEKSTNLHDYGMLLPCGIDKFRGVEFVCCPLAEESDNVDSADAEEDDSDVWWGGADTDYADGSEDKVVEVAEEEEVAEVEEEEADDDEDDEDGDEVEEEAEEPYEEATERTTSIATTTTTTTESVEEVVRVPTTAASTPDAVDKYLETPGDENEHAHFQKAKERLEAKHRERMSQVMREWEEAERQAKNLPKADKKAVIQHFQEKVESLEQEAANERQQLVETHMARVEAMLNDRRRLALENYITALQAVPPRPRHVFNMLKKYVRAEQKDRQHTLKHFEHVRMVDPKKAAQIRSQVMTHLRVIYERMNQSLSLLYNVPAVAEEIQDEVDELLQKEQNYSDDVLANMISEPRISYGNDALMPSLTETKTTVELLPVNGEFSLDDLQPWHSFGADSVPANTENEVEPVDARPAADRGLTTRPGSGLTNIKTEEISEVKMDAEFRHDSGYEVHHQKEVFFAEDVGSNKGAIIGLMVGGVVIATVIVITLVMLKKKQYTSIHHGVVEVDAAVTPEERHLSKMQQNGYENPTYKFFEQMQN
BE11-hAPP695 with lysine at position 17 of β-amyloid, sequence (chain, as listed by the source): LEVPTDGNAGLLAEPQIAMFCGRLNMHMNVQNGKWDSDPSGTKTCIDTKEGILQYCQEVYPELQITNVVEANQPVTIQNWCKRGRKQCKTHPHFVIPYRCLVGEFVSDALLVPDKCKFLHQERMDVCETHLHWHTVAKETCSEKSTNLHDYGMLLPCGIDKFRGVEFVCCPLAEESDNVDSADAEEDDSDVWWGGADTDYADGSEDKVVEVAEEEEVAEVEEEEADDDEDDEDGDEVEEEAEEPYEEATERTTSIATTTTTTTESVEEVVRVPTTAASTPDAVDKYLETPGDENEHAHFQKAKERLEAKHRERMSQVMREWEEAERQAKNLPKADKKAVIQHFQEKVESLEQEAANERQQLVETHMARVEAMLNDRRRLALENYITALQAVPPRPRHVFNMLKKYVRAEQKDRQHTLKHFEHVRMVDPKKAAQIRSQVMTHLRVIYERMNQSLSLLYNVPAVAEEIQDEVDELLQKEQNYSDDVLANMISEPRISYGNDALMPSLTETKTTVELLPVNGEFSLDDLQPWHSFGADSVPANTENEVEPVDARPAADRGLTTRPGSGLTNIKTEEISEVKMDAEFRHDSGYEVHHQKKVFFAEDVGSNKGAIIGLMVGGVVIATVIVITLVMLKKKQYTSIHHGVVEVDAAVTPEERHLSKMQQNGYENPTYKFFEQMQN
BE11-hAPP695 with proline at position 17 of β-amyloid, sequence (chain, as listed by the source): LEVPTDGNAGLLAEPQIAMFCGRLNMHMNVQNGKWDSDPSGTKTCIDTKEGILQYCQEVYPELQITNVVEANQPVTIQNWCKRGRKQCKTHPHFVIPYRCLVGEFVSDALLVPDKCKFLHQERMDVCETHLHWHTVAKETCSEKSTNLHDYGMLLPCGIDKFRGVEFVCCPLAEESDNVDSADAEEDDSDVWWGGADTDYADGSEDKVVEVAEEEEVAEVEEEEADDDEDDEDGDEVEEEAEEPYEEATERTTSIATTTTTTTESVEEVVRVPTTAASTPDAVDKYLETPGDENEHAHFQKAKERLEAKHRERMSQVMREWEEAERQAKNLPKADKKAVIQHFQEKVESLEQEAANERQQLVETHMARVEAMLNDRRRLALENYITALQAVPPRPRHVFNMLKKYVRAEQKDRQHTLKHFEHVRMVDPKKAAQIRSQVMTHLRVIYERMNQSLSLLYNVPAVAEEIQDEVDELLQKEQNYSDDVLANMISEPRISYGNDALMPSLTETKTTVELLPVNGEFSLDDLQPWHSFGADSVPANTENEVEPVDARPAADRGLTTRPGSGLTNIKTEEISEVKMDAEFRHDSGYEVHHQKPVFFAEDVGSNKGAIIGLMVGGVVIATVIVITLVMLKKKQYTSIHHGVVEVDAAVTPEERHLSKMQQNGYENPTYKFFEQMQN
BE11-hAPP695 with alanine at position 17 of β-amyloid, sequence (chain, as listed by the source): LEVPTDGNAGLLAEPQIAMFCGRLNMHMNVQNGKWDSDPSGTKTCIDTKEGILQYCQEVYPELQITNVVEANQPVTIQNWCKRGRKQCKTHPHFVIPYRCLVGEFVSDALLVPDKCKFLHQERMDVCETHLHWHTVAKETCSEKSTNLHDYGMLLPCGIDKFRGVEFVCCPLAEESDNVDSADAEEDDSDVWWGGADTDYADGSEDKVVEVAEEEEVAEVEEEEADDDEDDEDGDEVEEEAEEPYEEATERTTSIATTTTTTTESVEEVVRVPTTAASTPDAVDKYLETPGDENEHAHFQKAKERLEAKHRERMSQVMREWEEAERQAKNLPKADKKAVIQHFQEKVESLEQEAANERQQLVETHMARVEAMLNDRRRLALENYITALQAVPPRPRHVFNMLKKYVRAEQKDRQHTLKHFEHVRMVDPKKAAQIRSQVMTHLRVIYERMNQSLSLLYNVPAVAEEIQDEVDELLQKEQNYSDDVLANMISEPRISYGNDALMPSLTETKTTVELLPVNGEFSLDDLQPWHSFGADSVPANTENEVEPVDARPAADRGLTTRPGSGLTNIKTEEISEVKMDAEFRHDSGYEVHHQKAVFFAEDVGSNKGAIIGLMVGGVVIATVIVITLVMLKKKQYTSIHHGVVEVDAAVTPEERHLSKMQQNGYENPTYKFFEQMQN

## α-secretase (endogenous activity of the CHO-K1 cells of Example 2)
[1]
  α-cleavage product in culture supernatant, Western blotting: no α-cleavage product was detected in any culture supernatant
[2]
  α-cleavage product in culture supernatant, Western blotting: no α-cleavage product was detected in any culture supernatant

## α-secretase (endogenous activity of the COS7 cells of Example 1)
[3]
  α-cleavage: amount of α-secretase cleavage product (sAPPα) in culture supernatant, Western blotting: ↓
[4]
  α-cleavage: amount of α-secretase cleavage product (sAPPα) in culture supernatant, Western blotting: 0
[5]
  α-cleavage: amount of α-secretase cleavage product (sAPPα) in culture supernatant, Western blotting: ↓↓
[6]
  α-cleavage: amount of α-secretase cleavage product (sAPPα) in culture supernatant, Western blotting: 0
[7]
  α-cleavage: amount of α-secretase cleavage product (sAPPα) in culture supernatant, Western blotting: ↓↓

## β-secretase (endogenous activity of the CHO-K1 cells of Example 2)
[1]
  β-amyloid production: produced 5 to 10 times as much β-amyloid
  β-secretase cleavage product in culture supernatant, Western blotting: a β-secretase cleavage product was detected only in the fusion protein expression cell line (S)
[2]
  β-secretase cleavage product in culture supernatant, Western blotting: a β-secretase cleavage product was detected only in the fusion protein expression cell line (S)

## β-secretase (endogenous activity of the COS7 cells of Example 1)
[3]
  β-cleavage: amount of β-secretase cleavage product (sAPPβ) in culture supernatant, Western blotting: →
[4]
  β-cleavage: amount of β-secretase cleavage product (sAPPβ) in culture supernatant, Western blotting: →
[5]
  β-cleavage: amount of β-secretase cleavage product (sAPPβ) in culture supernatant, Western blotting: ↑
[6]
  β-cleavage: amount of β-secretase cleavage product (sAPPβ) in culture supernatant, Western blotting: →
[7]
  β-cleavage: amount of β-secretase cleavage product (sAPPβ) in culture supernatant, Western blotting: →
